In US20140301990A1:

Assays:
Test in all cases: cell_activity
[1] = test system: TALEN 101540 (engineered); details: pair with 101536, K562; 9.6 with 101537
[2] = test system: TALEN 101539 (engineered); details: pair with 101536, K562; 0.0 with 101537
[3] = test system: TALEN 101537 (engineered); details: pair with 101541, K562; 9.6 with 101540, 0.0 with 101539
[4] = test system: TALEN 101513 (engineered); details: pair with 101516, K562; 5.9 with 101514, 8.3 with 101515
[5] = test system: TALEN 101511 (engineered); details: pair with 101515, K562; 3.4 with 101514, 5.3 with 101516
[6] = test system: TALEN 101512 (engineered); details: pair with 101516, K562; 5.3 with 101514, 8.9 with 101515
[7] = test system: TALEN 101516 (engineered); details: pair with 101513, K562
[8] = test system: TALEN 101515 (engineered); details: pair with 101512, K562
[9] = test system: ZFN 22454 (TRBC) (engineered); details: pair with 16783, K562 day 3; 12.1 day 10
[10] = test system: ZFN 16787 (TRBC) (engineered); details: pair with 16783, K562 day 3; 15.6 day 10; Table 6 8.73 TRBC1, 8.68 TRBC2
[11] = test system: ZFN 22449 (TRBC) (engineered); details: pair with 16783, K562 day 3; 8.1 day 10
[12] = test system: ZFN 22409 (TRBC) (engineered); details: pair with 16783, K562 day 10
[13] = test system: TALEN 101536 (engineered); details: pair with 101541, K562; 8.5 with 101539, 9.9 with 101540
[14] = test system: TALEN 101514 (engineered); details: pair with 101513, K562

“CTGGGTCCACTCGTCATTC (double strand) [101540 site]” was tested. Which activity [1] did it give?
Its activity is 9.9 % NHEJ.

How did the activity [2] turn out when “CTGGGTCCACTCGTCATTCT (double strand) [101539 site]” was run?
Its activity is 8.5 % NHEJ.

“CTGTCAAGTCCAGTTCTA (double strand) [101537 site]” was tested. Which activity [3] did it give?
Its activity is 9.9 % NHEJ.

How did the activity [4] turn out when “CTGTGGCCTGGAGCAACAA (double strand) [101513 site]” was run?
The activity was 16.4 % NHEJ.

With “GTGCTGTGGCCTGGAGCAA (double strand) [101511 site]” as the sequence, how does the activity [5] read?
The activity was 5.9 % NHEJ.

How did the activity [6] turn out when “GTGCTGTGGCCTGGAGCAAC (double strand) [101512 site]” was run?
The activity was 12 % NHEJ.

“GTTGAAGGCGTTTGCACATG (double strand) [101516 site]” was tested. Which activity [7] did it give?
The activity was 16.4 % NHEJ.

How did the activity [8] turn out when “GTTGAAGGCGTTTGCACATGC (double strand) [101515 site]” was run?
The activity was 8.9 % NHEJ.

For “TCTCGGAGAATGACGAGTGGACCCAGGA (double strand) [TRBC 16787 site]”, which activity [9] is on record?
The activity was 17.7 % NHEJ.

And the activity [10]?
The activity was 12.1 % NHEJ.

What about the activity [11] of the same sequence?
The activity was 20.1 % NHEJ.

And the activity [12]?
Its activity is 14.7 % NHEJ.

Which activity [13] does the source give for “TTCCGCTGTCAAGTCCAGTTC (double strand) [101536 site]” here?
The activity was 15 % NHEJ.

For “TTGAAGGCGTTTGCACATGCA (double strand) [101514 site]”, which activity [14] is on record?
The activity was 5.9 % NHEJ.
